From patent US20190270815A1 (WUXI BIOLOGICS IRELAND, published 2019) come the findings set out here.

Assay [1] addresses T1, murine PD-1 (Sino biological) (murine, UniProt Q02242 25-167, limits assumed).
T1 sequence (looked up): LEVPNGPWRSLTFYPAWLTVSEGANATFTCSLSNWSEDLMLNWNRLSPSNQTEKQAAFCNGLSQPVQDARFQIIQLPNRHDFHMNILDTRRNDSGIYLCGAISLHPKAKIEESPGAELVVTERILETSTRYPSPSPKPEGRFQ
Kind of assay: ELISA on plate-coated murine PD-1. On the procedure: 3.3.1 Cross-reactivity to cynomolgus PD-1 and murine PD-1: Cross-reactivity was measured by ELISA. Plates (Nunc) were coated with cynomolgus PD-1 (Sino Biological) and murine PD-1 (Sino biological) at 1 μg/ml overnight at 4° C. After blocking and washing, […] antibodies were added to the plates and incubated at room temperature for 1 h. The plates were then washed and subsequently incubated with secondary antibody goat anti rat IgG1 HRP (Bethyl) and goat anti rat IgG2b HRP (Bethyl) for 45 min. After washing, TMB substrate was added and the interaction was stopped by 2M HCl. The absorbance at 450 nm was read using a microplate reader (Molecular Device).
Background: ELISA stands for enzyme-linked immunosorbent assay.

The target of assay [2] is T2, hPD-1 ECD-His point mutant C 123 (to alanine) (human, UniProt Q15116 25-170).
T2 construct: extracellular domain
T2 sequence (Q15116 other isoform, or with tags, fused parts or gaps mutant): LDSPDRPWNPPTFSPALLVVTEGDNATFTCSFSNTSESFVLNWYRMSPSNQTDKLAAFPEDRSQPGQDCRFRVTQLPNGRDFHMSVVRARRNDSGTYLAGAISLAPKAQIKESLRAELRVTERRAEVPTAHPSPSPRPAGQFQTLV
The assay can be described thus: ELISA, antibody coated, His-tagged PD-1 mutant supernatant; fold change vs silent alanine substitutions. On the procedure:
(§1) After interacting with the supernatant that contains quantified PD-1 mutant, HRP conjugated anti-His antibody (Rockland, Cat#200-303-382) was added as detection antibody. Absorbance was normalized according to the average of control mutants. After setting an additional cutoff to t4he binding fold change (<0.55), the final determined epitope residues were identified.

The target of assay [3] is T3, hPD-1 ECD-His point mutant K 135 (to alanine) (human, UniProt Q15116 25-170).
T3 construct: extracellular domain
T3 sequence (Q15116 other isoform, or with tags, fused parts or gaps mutant): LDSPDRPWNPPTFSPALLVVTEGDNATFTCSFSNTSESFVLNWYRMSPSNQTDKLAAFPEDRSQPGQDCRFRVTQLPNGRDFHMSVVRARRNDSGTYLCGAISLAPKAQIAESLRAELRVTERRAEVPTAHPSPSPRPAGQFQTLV
Described as above. On the procedure:
as §1

Assay [4] deals with T4, hPD-1 ECD-His point mutant A 132 (to glycine) (human, UniProt Q15116 25-170).
T4 construct: extracellular domain
T4 sequence (Q15116 other isoform, or with tags, fused parts or gaps mutant): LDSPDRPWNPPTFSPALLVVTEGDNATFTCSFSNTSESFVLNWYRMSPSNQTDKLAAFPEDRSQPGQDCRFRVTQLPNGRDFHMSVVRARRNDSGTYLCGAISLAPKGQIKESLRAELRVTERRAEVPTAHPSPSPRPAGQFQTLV
The assay is described as above. As for the experimental part:
as §1

Assay [5] addresses T5, hPD-1 ECD-His point mutant W 67 (to alanine) (human, UniProt Q15116 25-170).
T5 construct: extracellular domain
The description is as above. On the procedure:
as §1

The target of assay [6] is T6, hPD-1 ECD-His point mutant R 94 (to alanine) (human, UniProt Q15116 25-170).
T6 construct: extracellular domain
T6 sequence (Q15116 other isoform, or with tags, fused parts or gaps mutant): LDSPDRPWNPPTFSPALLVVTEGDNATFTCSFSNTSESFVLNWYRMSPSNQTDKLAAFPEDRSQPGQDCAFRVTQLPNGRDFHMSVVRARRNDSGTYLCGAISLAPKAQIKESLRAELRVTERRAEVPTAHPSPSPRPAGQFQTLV
Described as above. On the procedure: as §1

Assay [7] deals with T7, hPD-1 ECD-His point mutant F 106 (to alanine) (human, UniProt Q15116 25-170).
T7 construct: extracellular domain
T7 sequence (Q15116 other isoform, or with tags, fused parts or gaps mutant): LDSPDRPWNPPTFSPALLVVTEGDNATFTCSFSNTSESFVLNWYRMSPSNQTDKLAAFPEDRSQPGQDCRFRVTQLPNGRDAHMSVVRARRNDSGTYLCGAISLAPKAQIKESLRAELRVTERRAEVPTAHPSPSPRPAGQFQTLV
The assay is described as above. As for the experimental part:
as §1

Assay [8] concerns the target T8, hPD-1 ECD-His point mutant D 117 (to alanine) (human, UniProt Q15116 25-170).
T8 construct: extracellular domain
The assay is described as above. On the procedure: as §1

The target in assay [9] is T9, hPD-1 ECD-His point mutant F 95 (to alanine) (human, UniProt Q15116 25-170).
T9 construct: extracellular domain
T9 sequence (Q15116 other isoform, or with tags, fused parts or gaps mutant): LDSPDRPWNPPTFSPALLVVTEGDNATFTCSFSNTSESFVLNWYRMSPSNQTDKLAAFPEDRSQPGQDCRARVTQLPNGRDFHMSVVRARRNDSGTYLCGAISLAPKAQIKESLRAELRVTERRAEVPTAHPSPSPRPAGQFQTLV
The description is as above. On the procedure: as §1

In assay [10] the target is T10, hPD-1 ECD-His point mutant P 83 (to alanine) (human, UniProt Q15116 25-170).
T10 construct: extracellular domain
T10 sequence (Q15116 other isoform, or with tags, fused parts or gaps mutant): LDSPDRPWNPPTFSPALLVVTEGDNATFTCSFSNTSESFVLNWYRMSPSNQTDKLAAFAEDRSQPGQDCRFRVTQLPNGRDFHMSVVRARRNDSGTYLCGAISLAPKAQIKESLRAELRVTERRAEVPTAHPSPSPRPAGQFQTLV
The description is as above. As for the experimental part: as §1

In assay [11] the target is T11, hPD-1 ECD-His point mutant F 52 (to alanine) (human, UniProt Q15116 25-170).
T11 construct: extracellular domain
T11 sequence (Q15116 other isoform, or with tags, fused parts or gaps mutant): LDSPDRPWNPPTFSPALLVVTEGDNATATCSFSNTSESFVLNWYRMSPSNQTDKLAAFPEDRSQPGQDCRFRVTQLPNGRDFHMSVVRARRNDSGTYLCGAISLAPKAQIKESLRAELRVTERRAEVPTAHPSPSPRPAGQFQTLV
The description is as above. As for the experimental part:
as §1

T5 sequence (Q15116 other isoform, or with tags, fused parts or gaps mutant): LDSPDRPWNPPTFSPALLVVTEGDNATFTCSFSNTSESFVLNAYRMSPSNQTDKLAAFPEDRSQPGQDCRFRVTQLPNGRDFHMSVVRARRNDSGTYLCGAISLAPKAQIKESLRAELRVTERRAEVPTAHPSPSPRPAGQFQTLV
T8 sequence (Q15116 other isoform, or with tags, fused parts or gaps mutant): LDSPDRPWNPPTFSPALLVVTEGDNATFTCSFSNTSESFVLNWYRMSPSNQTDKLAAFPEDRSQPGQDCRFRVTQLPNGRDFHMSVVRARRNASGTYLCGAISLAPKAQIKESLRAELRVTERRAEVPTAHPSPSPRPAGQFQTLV

B1: 1.103.11 hAb (antibody, V domains shown)
VH: QLQLQESGPGLVKPSETLTLTCTVSADSISSTTYYWVWIRQPPGKGLEWIGSISYSGSTYYNPSLKSRVTVSVDTSKNQFSLKLNSVAATDTALYYCARHLGYNGRYLPFDYWGQGTLVTVSS
VL: QSALTQPASVSGSPGQSITISCTGTSSDVGFYNYVSWYQQHPGKAPELMIYDVSNRPSGVSDRFSGSKSGNTASLTISGLQAEDEADYYCSSYTNISTWVFGGGTKLTVL
notes: fully human monoclonal antibody with a human constant region of IgG4 isotype
Regarding B1, in assay [1], the binding result was “no binding (tested: 1 g/ml antibodies (so in the source))”. Besides, the fold change is 0.46 in assay [2]; 0.62 in [3]; 0.53 in assay [4]; 0.76 in assay [5]; 0.7 in assay [6]; 0.41 in [7]. Besides, the fold change came out at 0.73 in assay [8], 0.63 in assay [9], 0.3 in assay [10] and 0.59 in [11].
